Test results taken from PMC8294767 (2021).

Tests used:
galectin-3 [1] = target: T1, galectin-3 (human (endogenous in A2780), UniProt P17931 1-250, biotinylated (printed: 'biotinylated galectin-3')); assay: SPR; platelets exposed to Revacept
galectin-3 [2] = target: T1, galectin-3; assay: SPR
galectin-3 [3] = target: T1, galectin-3; assay: SPR; remark: listed apart in the source
galectin-3 [4] = target: T1, galectin-3; assay: SPR; platelets exposed to anti-GPVI mAb

T1 sequence (P17931 whole entry): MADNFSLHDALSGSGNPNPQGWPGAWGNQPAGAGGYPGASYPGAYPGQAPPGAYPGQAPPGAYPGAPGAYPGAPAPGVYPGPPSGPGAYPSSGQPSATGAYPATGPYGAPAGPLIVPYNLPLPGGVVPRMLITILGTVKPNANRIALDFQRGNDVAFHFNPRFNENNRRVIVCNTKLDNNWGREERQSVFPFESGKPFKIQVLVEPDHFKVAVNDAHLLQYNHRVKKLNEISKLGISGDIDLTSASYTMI

B1: platelet glycoprotein VI (GPVI) (receptor)
chain: QSGPLPKPSLQALPSSLVPLEKPVTLRCQGPPGVDLYRLEKLSSSRYQDQAVLFIPAMKRSLAGRYRCSYQNGSLWSLPSDQLELVATGVFAKPSLSAQPGPAVSSGGDVTLQCQTRYGFDQFALYKEGDPAPYKNPERWYRASFPIITVTAAHSGTYRCYSFSSRDPYLWSAPSDPLELVVTGTSVTPSRLPTEPPSPVAEFSEATAELTVSFTNEVFTTETSRSITASPKESDSPAGPARQYYTKGNLVRICLGAVILIILAGFLAEDWHSRRKRLRHRGRAVQRPLPPLPPLPLTRKSNGGQDGGRQDVHSRGLCS
galectin-3 [1]
  Kd: 16.2 µM
galectin-3 [2]
  Kd: 48.6 µM
galectin-3 [3]
  Kd: 42.2 µM
galectin-3 [4]
  Kd: 21.4 µM
